Experiment [1] deals with GST-Nck1 SH3-3 (UniProt P16333). As to the kind of experiment: SPR.
The target of experiment [2] is T1, purified β2-chimaerin (UniProt P52757-1 1-468).
T1 sequence: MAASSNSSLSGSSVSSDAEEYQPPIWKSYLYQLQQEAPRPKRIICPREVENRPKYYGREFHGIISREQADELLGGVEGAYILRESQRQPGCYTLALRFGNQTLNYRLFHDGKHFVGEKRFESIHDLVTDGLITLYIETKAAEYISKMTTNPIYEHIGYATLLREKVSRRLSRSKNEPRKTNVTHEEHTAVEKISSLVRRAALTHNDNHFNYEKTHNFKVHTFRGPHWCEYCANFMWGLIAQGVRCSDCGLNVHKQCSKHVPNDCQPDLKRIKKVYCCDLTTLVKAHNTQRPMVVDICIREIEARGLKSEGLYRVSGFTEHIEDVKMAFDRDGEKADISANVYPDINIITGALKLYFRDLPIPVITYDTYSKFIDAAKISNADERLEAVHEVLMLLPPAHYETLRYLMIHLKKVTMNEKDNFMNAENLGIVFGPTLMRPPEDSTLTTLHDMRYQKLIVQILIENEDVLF
Nature of the experiment: co-sedimentation.

We go through two molecules from PMC3700536 (Nature communications, 2013).

Usually Kd stands for the concentration at which binding is half-saturated. Read a high Kd as a looser complex. Regarding “WT-β2-chim peptide (β2-chimaerin amino acids 34–59)”, the Kd in experiment [1] was determined as 18 µM.

B1: Nck1 SH3-3 (purified third SH3 domain of Nck1) (domain or fragment)
chain: QVLHVVQALYPFSSSNDEELNFEKGDVMDVIEKPENDPEWWKCRKINGMVGLVPKNYVTVMQN
With B1, the equilibrium dissociation constant (Kd) in experiment [2] is 1700 nM.
